Laboratory results as given in the Human Domainome abundance scans (Beltran et al. 2025).
± gives the uncertainty stated by the source.

B1: POU domain, class 4, transcription factor 1, residues 266 to 347; numbered along this chain, Q01851 (parent)
chain: RELEAFAERFKQRRIKLGVTQADVGSALANLKIPGVGSLSQSTICRFESLTLSHNNMIALKPILQAWLEEAEGAQREKMNKP

Variants of: B1
Assay: abundance fitness (aPCA) (normalised: wild type 0, dead -1); higher = more abundant; growth selection in yeast, the domain comes from the species named
Conditions: Homo sapiens

Point of comparison: P82D, abundance fitness 0.019 ± 0.14. Against it:
- P82G — within error, -0.011 ± 0.071
- P82F — within error, -0.105 ± 0.19
- Q65H — within error, -0.047 ± 0.05
- Q65D — within error, 0.01 ± 0.041
- T43N — within error, -0.199 ± 0.26
- T43Q — within error, -0.113 ± 0.11
- T43D — within error, -0.079 ± 0.075
- T43K — lower, -0.286 ± 0.15
- E72Y — within error, -0.138 ± 0.24
- E72L — lower, -0.431 ± 0.056
- E72I — within error, -0.179 ± 0.12
- E72W — lower, -0.415 ± 0.065
- E72V — lower, -0.35 ± 0.045
- P62C — lower, -0.429 ± 0.082
- P62G — lower, -0.2 ± 0.039
- P62L — lower, -0.524 ± 0.066
- P62R — lower, -0.347 ± 0.043
- P62D — within error, -0.188 ± 0.077
- F10Y — lower, -0.599 ± 0.064
- F10L — lower, -0.515 ± 0.031
- F10R — lower, -0.996 ± 0.044
- F10M — lower, -0.56 ± 0.044
- F10T — lower, -0.853 ± 0.073
- F10C — lower, -0.867 ± 0.071
- G37D — within error, -0.092 ± 0.052
- G37N — within error, 0.035 ± 0.079
- G37A — within error, -0.045 ± 0.028
- G37W — lower, -0.328 ± 0.036
- L39P — within error, -0.03 ± 0.072
- L39Y — lower, -0.277 ± 0.11
- L39K — lower, -0.409 ± 0.08
- L39M — within error, 0.01 ± 0.059
- L39D — lower, -0.231 ± 0.09
- A7S — lower, -0.203 ± 0.028
- A7T — within error, -0.138 ± 0.033
- A7E — lower, -0.884 ± 0.058
- A7L — lower, -0.656 ± 0.037
- A7K — lower, -0.489 ± 0.04
- E77D — within error, 0.006 ± 0.051
- E77S — within error, -0.024 ± 0.032
- E77W — within error, -0.145 ± 0.035
- E77G — within error, -0.025 ± 0.023
- A27R — within error, -0.081 ± 0.036
- A27G — within error, -0.153 ± 0.038
- A27H — within error, -0.07 ± 0.12
- A27K — within error, -0.058 ± 0.062
- A27V — within error, -0.16 ± 0.04
- A27Q — within error, -0.046 ± 0.058
- A27T — within error, -0.069 ± 0.07
- M57N — within error, -0.19 ± 0.17
- M57F — lower, -0.309 ± 0.16
- M57T — lower, -0.374 ± 0.062
- M57Q — lower, -0.197 ± 0.064
- M57R — lower, -0.775 ± 0.058
- M57W — lower, -0.289 ± 0.049
- M57H — lower, -0.399 ± 0.16
- M57A — within error, -0.132 ± 0.047
- M57C — lower, -0.268 ± 0.11
- M57D — lower, -0.935 ± 0.31
- N30I — within error, 0.054 ± 0.13
- N30R — within error, -0.063 ± 0.054
- N30C — lower, -0.337 ± 0.17
- S38F — within error, 0.147 ± 0.18
- S38A — within error, -0.18 ± 0.27
- E48T — lower, -0.954 ± 0.08
- I44W — lower, -0.827 ± 0.12
- I44Y — lower, -1.01 ± 0.42
- I44M — lower, -0.437 ± 0.086
- I44R — lower, -0.999 ± 0.12
- L31G — lower, -0.223 ± 0.024
- L31T — within error, 0.051 ± 0.035
- L31N — within error, -0.168 ± 0.061
- L31R — within error, -0.005 ± 0.024
- L31H — within error, -0.014 ± 0.058
- S53F — lower, -0.903 ± 0.23
- S53Y — within error, -0.131 ± 0.19
- S53Q — within error, -0.013 ± 0.07
- S53L — lower, -0.518 ± 0.094
- F47I — lower, -0.917 ± 0.28
- F47C — lower, -0.969 ± 0.28
- F47V — lower, -0.706 ± 0.095
- F47S — lower, -0.717 ± 0.14
- F47L — within error, -0.145 ± 0.063
- Q12A — within error, -0.004 ± 0.03
- Q12C — lower, -0.466 ± 0.053
- L60F — lower, -0.355 ± 0.23
- L60T — lower, -0.452 ± 0.31
- R76L — within error, 0.012 ± 0.023
- R76W — within error, -0.056 ± 0.026
- R76Y — within error, -0.124 ± 0.05
- R76I — within error, -0.029 ± 0.04
- R76A — within error, 0.03 ± 0.025
- R76C — within error, 0.012 ± 0.033
- R76N — within error, 0.026 ± 0.063
- R76G — within error, 0.007 ± 0.02
- T51Q — within error, 0.054 ± 0.038
- T51H — within error, 0.003 ± 0.036
- T51W — lower, -0.487 ± 0.065
- A66E — within error, 0.012 ± 0.029
- A66L — within error, -0.125 ± 0.029
- G18R — within error, -0.231 ± 0.15
- G18L — lower, -0.724 ± 0.46
- G18D — lower, -0.394 ± 0.12
- K32I — within error, -0.165 ± 0.21
- K32N — within error, -0.076 ± 0.27
- K32A — within error, -0.003 ± 0.078
- K32Q — within error, -0.022 ± 0.11
- V24P — lower, -1.06 ± 0.23
- V24R — lower, -0.745 ± 0.074
- S49R — within error, -0.073 ± 0.029
- S49Y — lower, -0.396 ± 0.044
- S49C — within error, -0.082 ± 0.037
- S49Q — within error, 0.052 ± 0.043
- S49I — lower, -0.573 ± 0.063
- S40Q — within error, -0.072 ± 0.075
- S40A — within error, -0.129 ± 0.053
- S40I — within error, -0.202 ± 0.17
- E69I — within error, 0.056 ± 0.11
- E69D — within error, 0.011 ± 0.088
- E69G — lower, -0.207 ± 0.043
- E69N — within error, -0.022 ± 0.08
- W67T — lower, -0.805 ± 0.18
- W67R — lower, -0.639 ± 0.073
- W67D — lower, -0.425 ± 0.23
- A59D — within error, -0.052 ± 0.069
- A59P — lower, -0.368 ± 0.1
- A59L — within error, -0.027 ± 0.05
- A59C — within error, -0.054 ± 0.063
- A59K — within error, 0.035 ± 0.079
- A59Y — within error, -0.072 ± 0.12
- A59H — within error, 0.227 ± 0.19
- T20E — within error, -0.124 ± 0.094
- T20R — within error, -0.087 ± 0.1
- R14N — lower, -0.923 ± 0.12
- R14L — lower, -0.768 ± 0.045
- R14G — lower, -1.07 ± 0.081
- R14V — lower, -0.932 ± 0.062
- Q41D — within error, 0.048 ± 0.084
- Q41E — within error, 0.051 ± 0.039
- Q41M — within error, -0.074 ± 0.064
- Q41G — within error, 0.003 ± 0.034
- Q41W — within error, -0.074 ± 0.051
- Q41T — within error, -0.055 ± 0.062
- L68T — lower, -0.459 ± 0.12
- L68M — within error, -0.112 ± 0.069
- L68V — within error, -0.074 ± 0.051
- L68H — within error, -0.329 ± 0.22
- L68P — lower, -0.715 ± 0.18
- L52W — lower, -0.546 ± 0.071
- L52F — within error, -0.24 ± 0.47
- L52T — lower, -0.472 ± 0.064
- L52R — lower, -0.986 ± 0.084
- L52I — lower, -0.496 ± 0.29
- L52D — lower, -0.229 ± 0.084
- I33L — within error, 0.024 ± 0.028
- I33C — within error, -0.005 ± 0.039
- I33V — within error, 0.05 ± 0.027
- I33S — lower, -0.23 ± 0.034
- I33H — within error, -0.147 ± 0.06
- I33G — lower, -0.282 ± 0.025
- I33F — within error, -0.091 ± 0.048
- L64I — within error, -0.339 ± 0.26
- L64T — lower, -0.76 ± 0.15
- L64Y — within error, -0.144 ± 0.19
- L64W — lower, -0.948 ± 0.19
- L64G — lower, -0.672 ± 0.065
